These results are taken from paper PMC5768722.

In this assay the target is Pertuzumab Cλ variants. The experiment in a line: BLI; antibody light chain variants pre-loaded on Anti-hIgG-Fc Capture (AHC) biosensors, Her2 at 100 nM to 6.25 nM, Octet QKe, 1x kinetic buffer. For orientation: Biolayer interferometry detects binding as a change in optical thickness at a sensor tip.

Substance “HIS-tagged Her2 (recombinant extracellular portion) (from UniProt P04626 23-652) (domain or fragment)” registered a Kd of 0.77 to 1.42 nM.

The Kd is the free concentration of one partner at which half of the binding sites on the other are occupied at equilibrium, for simple one-to-one binding. A high value points to weaker binding.
